Results from publication PMC10121901.

Assays:
[1] = biological target: CA-N21C A22C (CA spheres) (HIV-1); assay: negative-stain EM of NuPODs mixed with CA assemblies
[2] = biological target: CA-A14C E45C (disulfide-crosslinked CA tubes; also assembled into cones with IP6) (HIV-1); assay: as above
[3] = biological target: CA-N21C A22C (CA spheres) (HIV-1); assay: co-sedimentation

Substance | percent of NuPODs bound to CA spheres and CA tubes at the same time [1] | percent of NuPODs bound to CA spheres and CA tubes at the same time [2] | percent of NuPODs in the supernatant (with the CA spheres) [3] | fold preference for binding to spheres over tubes (NuPODs in excess) [1]
Nup358^(RBD4-CycH, aa 2911–3225) (from UniProt P49792 2911-3224) (domain or fragment) | 20 to 50% | 20 to 50% |  | 
MBP-Nup153^(CTD, aa 896–1475) (from UniProt P49790 896-1475) (domain or fragment) |  |  | 95% | 60 fold
